The test has as its target FBXW7 (UniProt Q8VBV4). Description: anti-FLAG co-IP, MCL1-HA blot. The note with it: reference: WT MCL1-HA; sites S140.

As for “MCL1 (from UniProt P97287) MCL1-HA S140A”, the “binding against the reference” value is given as “weaker”.

These data come from article PMC5294778.
